According to patent US20260184748A1 (University of Pennsylvania, published 2026):
Where no end group is shown, it is not given here.

Legend:
Assay in all cases: cell-based or functional assay
[1] = target: T1, relaxin-3 receptor (RXFP3) (UniProt Q9NSD7 1-469)
T1 sequence (looked up): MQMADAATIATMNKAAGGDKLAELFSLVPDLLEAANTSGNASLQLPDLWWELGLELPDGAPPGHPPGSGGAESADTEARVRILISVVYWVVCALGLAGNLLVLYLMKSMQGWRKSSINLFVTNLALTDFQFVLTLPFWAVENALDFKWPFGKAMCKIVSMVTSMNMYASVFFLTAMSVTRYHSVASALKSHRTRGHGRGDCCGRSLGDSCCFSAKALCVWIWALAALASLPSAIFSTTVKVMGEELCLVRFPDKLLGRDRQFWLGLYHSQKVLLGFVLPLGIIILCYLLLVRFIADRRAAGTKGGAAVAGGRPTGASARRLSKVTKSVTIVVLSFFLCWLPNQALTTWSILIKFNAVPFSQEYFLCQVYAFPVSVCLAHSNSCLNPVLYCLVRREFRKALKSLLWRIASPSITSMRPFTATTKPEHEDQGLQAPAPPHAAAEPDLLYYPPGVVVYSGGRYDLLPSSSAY

HTR1E = HTR1E (UniProt P28566 1-365)
AGTRL1 = target: T2, AGTRL1 (UniProt P35414 1-380)
T2 sequence (looked up): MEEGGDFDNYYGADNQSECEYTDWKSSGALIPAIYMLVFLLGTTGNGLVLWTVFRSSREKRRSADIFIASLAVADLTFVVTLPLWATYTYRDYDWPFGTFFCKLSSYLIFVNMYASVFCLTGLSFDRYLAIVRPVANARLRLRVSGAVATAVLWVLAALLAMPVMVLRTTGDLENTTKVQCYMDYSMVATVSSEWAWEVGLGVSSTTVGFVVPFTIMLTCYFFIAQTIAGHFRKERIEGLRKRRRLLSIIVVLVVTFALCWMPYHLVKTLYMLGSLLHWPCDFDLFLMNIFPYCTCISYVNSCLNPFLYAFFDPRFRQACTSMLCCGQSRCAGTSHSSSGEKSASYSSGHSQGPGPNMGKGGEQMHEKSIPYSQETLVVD

CCR1 = target: T3, CCR1 (UniProt P32246 1-355)
T3 sequence (looked up): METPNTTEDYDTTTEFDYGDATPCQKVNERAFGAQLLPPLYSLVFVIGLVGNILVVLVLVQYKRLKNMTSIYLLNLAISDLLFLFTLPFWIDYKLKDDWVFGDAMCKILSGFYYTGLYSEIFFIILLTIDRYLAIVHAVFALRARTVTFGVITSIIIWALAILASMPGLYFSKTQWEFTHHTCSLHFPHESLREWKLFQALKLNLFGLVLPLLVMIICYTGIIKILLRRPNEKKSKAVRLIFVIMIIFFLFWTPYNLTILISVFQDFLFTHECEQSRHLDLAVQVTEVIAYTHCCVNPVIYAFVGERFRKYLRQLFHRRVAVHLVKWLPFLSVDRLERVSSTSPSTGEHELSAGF

EDG6 = target: T4, EDG6 (UniProt O95977 1-384)
T4 sequence (looked up): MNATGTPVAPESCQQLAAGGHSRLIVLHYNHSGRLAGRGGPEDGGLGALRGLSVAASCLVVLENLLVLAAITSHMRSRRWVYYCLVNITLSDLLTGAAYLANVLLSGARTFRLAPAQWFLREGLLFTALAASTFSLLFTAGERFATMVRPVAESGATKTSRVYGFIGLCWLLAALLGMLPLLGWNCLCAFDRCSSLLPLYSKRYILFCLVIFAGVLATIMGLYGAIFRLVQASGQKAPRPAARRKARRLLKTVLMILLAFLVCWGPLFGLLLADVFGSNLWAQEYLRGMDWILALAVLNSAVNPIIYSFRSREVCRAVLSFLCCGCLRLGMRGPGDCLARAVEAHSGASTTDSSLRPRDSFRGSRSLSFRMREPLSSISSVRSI

SSTR3 = SSTR3 (UniProt P32745 1-418)
NPY1R = target: T5, NPY1R (UniProt P25929 1-384)
T5 sequence (looked up): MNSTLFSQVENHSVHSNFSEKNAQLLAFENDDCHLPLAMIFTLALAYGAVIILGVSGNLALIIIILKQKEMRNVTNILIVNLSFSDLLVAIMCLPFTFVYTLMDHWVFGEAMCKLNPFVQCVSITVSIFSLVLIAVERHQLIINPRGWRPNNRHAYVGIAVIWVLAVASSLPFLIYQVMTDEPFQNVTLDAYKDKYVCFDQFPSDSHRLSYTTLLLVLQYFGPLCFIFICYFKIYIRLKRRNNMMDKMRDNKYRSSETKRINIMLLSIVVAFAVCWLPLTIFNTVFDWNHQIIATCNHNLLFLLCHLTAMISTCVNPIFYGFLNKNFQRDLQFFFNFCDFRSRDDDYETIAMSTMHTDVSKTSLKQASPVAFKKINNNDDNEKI

NPBWR1 = target: T6, NPBWR1 (UniProt P48145 1-328)
T6 sequence (looked up): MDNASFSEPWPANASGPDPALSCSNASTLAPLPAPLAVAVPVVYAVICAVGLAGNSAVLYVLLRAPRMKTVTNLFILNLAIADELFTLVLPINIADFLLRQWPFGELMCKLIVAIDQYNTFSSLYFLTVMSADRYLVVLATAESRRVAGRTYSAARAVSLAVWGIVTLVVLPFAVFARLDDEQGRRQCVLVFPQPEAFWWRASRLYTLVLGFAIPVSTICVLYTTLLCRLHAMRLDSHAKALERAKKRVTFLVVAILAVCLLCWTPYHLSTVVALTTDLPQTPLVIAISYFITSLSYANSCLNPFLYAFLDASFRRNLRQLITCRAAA

CCR8 = CCR8 (UniProt P51685 1-355)
CCR3 = target: T7, CCR3 (UniProt P51677 1-355)
T7 sequence (looked up): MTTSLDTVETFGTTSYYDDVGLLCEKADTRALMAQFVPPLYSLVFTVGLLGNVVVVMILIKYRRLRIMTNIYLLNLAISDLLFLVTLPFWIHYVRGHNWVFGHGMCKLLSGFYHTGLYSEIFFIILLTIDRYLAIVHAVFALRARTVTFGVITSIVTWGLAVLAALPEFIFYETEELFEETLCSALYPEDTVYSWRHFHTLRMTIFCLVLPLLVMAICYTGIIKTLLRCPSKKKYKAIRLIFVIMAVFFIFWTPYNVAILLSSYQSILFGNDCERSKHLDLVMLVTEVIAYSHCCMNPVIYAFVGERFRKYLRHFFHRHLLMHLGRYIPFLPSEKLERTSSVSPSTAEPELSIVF

SSTR3, sequence (P32745 whole entry): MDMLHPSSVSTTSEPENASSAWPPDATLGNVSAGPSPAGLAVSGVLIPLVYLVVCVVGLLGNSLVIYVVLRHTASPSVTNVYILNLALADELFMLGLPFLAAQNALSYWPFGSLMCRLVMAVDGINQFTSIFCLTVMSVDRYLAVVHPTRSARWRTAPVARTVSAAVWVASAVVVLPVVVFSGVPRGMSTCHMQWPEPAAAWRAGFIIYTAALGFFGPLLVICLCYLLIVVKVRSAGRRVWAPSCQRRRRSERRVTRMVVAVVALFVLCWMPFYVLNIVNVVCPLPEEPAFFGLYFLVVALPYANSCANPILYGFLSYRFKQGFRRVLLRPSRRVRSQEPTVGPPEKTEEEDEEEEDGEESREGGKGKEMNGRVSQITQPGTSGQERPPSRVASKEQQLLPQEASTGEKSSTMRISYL
HTR1E, sequence (P28566 whole entry): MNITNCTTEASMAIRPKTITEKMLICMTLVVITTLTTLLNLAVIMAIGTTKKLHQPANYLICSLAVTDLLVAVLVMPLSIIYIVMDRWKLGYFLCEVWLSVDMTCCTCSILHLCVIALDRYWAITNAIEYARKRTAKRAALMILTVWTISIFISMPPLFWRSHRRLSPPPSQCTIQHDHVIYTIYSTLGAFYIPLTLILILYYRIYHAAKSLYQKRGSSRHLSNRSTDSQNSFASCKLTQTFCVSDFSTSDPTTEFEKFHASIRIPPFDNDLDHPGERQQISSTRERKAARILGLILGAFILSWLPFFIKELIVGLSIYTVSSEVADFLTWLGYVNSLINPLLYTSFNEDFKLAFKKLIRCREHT

B1: octadecaneuropeptide (ODN) (peptide)
peptide: QATVGDVNTDRPGLLDLK
modifications: also: synthesised on Rink amide resin, C-terminal amide not given here outright
% Activity, arrestin, antagonist mode, 2.5 uM [1]: 31.4%
% Activity, arrestin, antagonist mode, 2.5 uM (HTR1E): -3.8%
% Activity, arrestin, antagonist mode, 2.5 uM (AGTRL1): -23.4%
% Activity, arrestin, antagonist mode, 2.5 uM (CCR1): -5.4%
% Activity, arrestin, antagonist mode, 2.5 uM (EDG6): 4.5%
% Activity, arrestin, antagonist mode, 2.5 uM (SSTR3): 4.2%
% Activity, arrestin, antagonist mode, 2.5 uM (NPY1R): -2.7%
% Activity, arrestin, antagonist mode, 2.5 uM (NPBWR1): -15%
% Activity, arrestin, antagonist mode, 2.5 uM (CCR8): -17%
% Activity, arrestin, antagonist mode, 2.5 uM (CCR3): -5.8%
